Test results reported in article PMC11997217, “Inactivation of GH3.5 by COP1-mediated K63-linked ubiquitination promotes seedling hypocotyl elongation” (Nature Communications, 2025).

Biological target: T1, MBP-COP1 (Arabidopsis, UniProt P43254 1-675)
T1 construct: CONSTITUTIVELY PHOTOMORPHOGENIC 1 (COP1), Arabidopsis; full-length COP1 fused with MBP-tag; The plasmid for full-length MBP-COP1 is not described in the methods; only its expression and purification are; also called CONSTITUTIVELY PHOTOMORPHOGENIC 1; full-length COP1; source: E. coli BL21, purified (amylose resin); not shown: MBP, N-terminal, kept
T1 sequence (looked up): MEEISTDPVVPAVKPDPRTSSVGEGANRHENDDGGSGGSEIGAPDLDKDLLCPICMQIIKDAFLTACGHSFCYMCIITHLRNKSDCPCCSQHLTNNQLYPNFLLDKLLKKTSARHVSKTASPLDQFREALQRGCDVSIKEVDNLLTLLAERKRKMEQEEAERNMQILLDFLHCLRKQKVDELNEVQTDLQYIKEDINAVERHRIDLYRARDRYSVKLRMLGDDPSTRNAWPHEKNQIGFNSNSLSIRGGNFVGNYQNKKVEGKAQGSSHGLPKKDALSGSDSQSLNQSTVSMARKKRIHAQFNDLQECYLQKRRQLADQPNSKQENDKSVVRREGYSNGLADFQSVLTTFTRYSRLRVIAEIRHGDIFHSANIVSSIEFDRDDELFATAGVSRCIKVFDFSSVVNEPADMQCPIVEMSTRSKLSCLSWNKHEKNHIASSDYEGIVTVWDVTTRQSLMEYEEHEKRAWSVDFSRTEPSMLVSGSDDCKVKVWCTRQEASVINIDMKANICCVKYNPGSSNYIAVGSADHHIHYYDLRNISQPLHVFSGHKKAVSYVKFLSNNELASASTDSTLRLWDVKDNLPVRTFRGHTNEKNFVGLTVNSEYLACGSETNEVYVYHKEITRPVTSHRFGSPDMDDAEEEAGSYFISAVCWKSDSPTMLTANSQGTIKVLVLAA
Experiment: pull-down; 1 μg GST-GH3.5 and 1 μg MBP-tagged COP1 in 25 mM Tris-HCl pH 7.5, 100 mM NaCl, 0.25% NP40, 4 °C; captured on amylose resin; washed with 500 mM NaCl, 0.5% NP40; blots with anti-MBP and anti-GST
Conditions: both partners purified

binding result: binds
B1: GST-GH3.5 (enzyme, Arabidopsis, UniProt O81829 1-612, looked up)
chain: MPEAPKKESLEVFDLTLDQKNKQKLQLIEELTSNADQVQRQVLEEILTRNADVEYLRRHDLNGRTDRETFKNIMPVITYEDIEPEINRIANGDKSPILSSKPISEFLTSSGTSGGERKLMPTIEEELDRRSLLYSLLMPVMSQFVPGLENGKGMYFLFIKSESKTPGGLPARPVLTSYYKSSHFKERPYDPYTNYTSPNETILCSDSYQSMYSQMLCGLCQHQEVLRVGAVFASGFIRAIKFLEKHWIELVRDIRTGTLSSLITDPSVREAVAKILKPSPKLADFVEFECKKSSWQGIITRLWPNTKYVDVIVTGTMSQYIPTLDYYSNGLPLVCTMYASSECYFGVNLRPLCKPSEVSYTLIPSMAYFEFLPVHRNNGVTNSINLPKALTEKEQQELVDLVDVKLGQEYELVVTTYAGLCRYRVGDLLRVTGFKNKAPQFSFICRKNVVLSIDSDKTDEVELQNAVKNAVTHLVPFDASLSEYTSYADTSSIPGHYVLFWELCLDGNTPIPPSVFEDCCLAVEESFNTVYRQGRVSDKSIGPLEIKIVEPGTFDKLMDYAISLGASINQYKTPRCVKFAPIIELLNSRVVDSYFSPKCPKWVPGHKQWGSN
notes: the GH3.5 CDS inserted into BamHI/EcoRI of pGEX4T-1; also called GRETCHEN HAGEN 3.5; source: E. coli BL21, purified (Glutathione Sepharose 4B); not shown: GST, N-terminal, kept
